Key:
[1] = target: human TNFR1 (soluble recombinant protein) (human) (UniProt P19438); assay: phage ELISA, plate coated with 1 nM TNFR1, anti-M13-HRP; trypsin 1 mg/ml; phage input 3.52E+08
[2] = target: human TNFR1 (soluble recombinant protein) (human) (UniProt P19438); assay: phage ELISA, plate coated with 1 nM TNFR1, anti-M13-HRP; trypsin 10 µg/ml; phage input 2.26E+10
[3] = target: human TNFR1 (soluble recombinant protein) (human) (UniProt P19438); assay: phage ELISA, plate coated with 1 nM TNFR1, anti-M13-HRP; trypsin 100 µg/ml; phage input 1.41E+09
[4] = target: human TNFR1 (soluble recombinant protein) (human) (UniProt P19438); assay: phage ELISA, plate coated with 1 nM TNFR1, anti-M13-HRP; trypsin 100 µg/ml; phage input 2.82E+09
[5] = target: human TNFR1 (soluble recombinant protein) (human) (UniProt P19438); assay: phage ELISA, plate coated with 1 nM TNFR1, anti-M13-HRP; trypsin 100 µg/ml; phage input 5.64E+09
[6] = target: human TNFR1 (soluble recombinant protein) (human) (UniProt P19438); assay: phage ELISA, plate coated with 1 nM TNFR1, anti-M13-HRP; trypsin 0 µg/ml; phage input 3.52E+08
[7] = target: human TNFR1 (soluble recombinant protein) (human) (UniProt P19438); assay: phage ELISA, plate coated with 1 nM TNFR1, anti-M13-HRP; trypsin 100 µg/ml; phage input 1.13E+10
[8] = target: human TNFR1 (soluble recombinant protein) (human) (UniProt P19438); assay: phage ELISA, plate coated with 1 nM TNFR1, anti-M13-HRP; trypsin 10 µg/ml; phage input 1.13E+10
[9] = target: human TNFR1 (soluble recombinant protein) (human) (UniProt P19438); assay: phage ELISA, plate coated with 1 nM TNFR1, anti-M13-HRP; trypsin 0 µg/ml; phage input 4.51E+10
[10] = target: human TNFR1 (soluble recombinant protein) (human) (UniProt P19438); assay: phage ELISA, plate coated with 1 nM TNFR1, anti-M13-HRP; trypsin 10 µg/ml; phage input 7.05E+08
[11] = target: human TNFR1 (soluble recombinant protein) (human) (UniProt P19438); assay: phage ELISA, plate coated with 1 nM TNFR1, anti-M13-HRP; trypsin 0 µg/ml; phage input 1.41E+09
[12] = target: human TNFR1 (soluble recombinant protein) (human) (UniProt P19438); assay: phage ELISA, plate coated with 1 nM TNFR1, anti-M13-HRP; trypsin 0 µg/ml; phage input 1.13E+10
[13] = target: human TNFR1 (soluble recombinant protein) (human) (UniProt P19438); assay: phage ELISA, plate coated with 1 nM TNFR1, anti-M13-HRP; trypsin 10 µg/ml; phage input 2.82E+09
[14] = target: human TNFR1 (soluble recombinant protein) (human) (UniProt P19438); assay: phage ELISA, plate coated with 1 nM TNFR1, anti-M13-HRP; trypsin 0 µg/ml; phage input 2.26E+10
[15] = target: human TNFR1 (soluble recombinant protein) (human) (UniProt P19438); assay: phage ELISA, plate coated with 1 nM TNFR1, anti-M13-HRP; trypsin 100 µg/ml; phage input 7.05E+08
[16] = target: human TNFR1 (soluble recombinant protein) (human) (UniProt P19438); assay: phage ELISA, plate coated with 1 nM TNFR1, anti-M13-HRP; trypsin 10 µg/ml; phage input 3.52E+08
[17] = target: human TNFR1 (soluble recombinant protein) (human) (UniProt P19438); assay: phage ELISA, plate coated with 1 nM TNFR1, anti-M13-HRP; trypsin 0 µg/ml; phage input 2.82E+09
[18] = target: human TNFR1 (soluble recombinant protein) (human) (UniProt P19438); assay: phage ELISA, plate coated with 1 nM TNFR1, anti-M13-HRP; trypsin 100 µg/ml; phage input 2.26E+10
[19] = target: human TNFR1 (soluble recombinant protein) (human) (UniProt P19438); assay: phage ELISA, plate coated with 1 nM TNFR1, anti-M13-HRP; trypsin 1 mg/ml; phage input 1.41E+09
[20] = target: human TNFR1 (soluble recombinant protein) (human) (UniProt P19438); assay: phage ELISA, plate coated with 1 nM TNFR1, anti-M13-HRP; trypsin 10 µg/ml; phage input 1.41E+09
[21] = target: human TNFR1 (soluble recombinant protein) (human) (UniProt P19438); assay: phage ELISA, plate coated with 1 nM TNFR1, anti-M13-HRP; trypsin 1 mg/ml; phage input 2.26E+10
[22] = target: human TNFR1 (soluble recombinant protein) (human) (UniProt P19438); assay: phage ELISA, plate coated with 1 nM TNFR1, anti-M13-HRP; trypsin 100 µg/ml; phage input 4.51E+10
[23] = target: human TNFR1 (soluble recombinant protein) (human) (UniProt P19438); assay: phage ELISA, plate coated with 1 nM TNFR1, anti-M13-HRP; trypsin 10 µg/ml; phage input 4.51E+10
[24] = target: human TNFR1 (soluble recombinant protein) (human) (UniProt P19438); assay: phage ELISA, plate coated with 1 nM TNFR1, anti-M13-HRP; phage treated 1 h RT with trypsin 1 mg/ml; phage input 4.51E+10
[25] = target: human TNFR1 (soluble recombinant protein) (human) (UniProt P19438); assay: phage ELISA, plate coated with 1 nM TNFR1, anti-M13-HRP; trypsin 1 mg/ml; phage input 2.82E+09
[26] = target: human TNFR1 (soluble recombinant protein) (human) (UniProt P19438); assay: phage ELISA, plate coated with 1 nM TNFR1, anti-M13-HRP; trypsin 1 mg/ml; phage input 5.64E+09
[27] = target: human TNFR1 (soluble recombinant protein) (human) (UniProt P19438); assay: phage ELISA, plate coated with 1 nM TNFR1, anti-M13-HRP; trypsin 10 µg/ml; phage input 5.64E+09
[28] = target: human TNFR1 (soluble recombinant protein) (human) (UniProt P19438); assay: phage ELISA, plate coated with 1 nM TNFR1, anti-M13-HRP; trypsin 1 mg/ml; phage input 1.13E+10
[29] = target: human TNFR1 (soluble recombinant protein) (human) (UniProt P19438); assay: phage ELISA, plate coated with 1 nM TNFR1, anti-M13-HRP; trypsin 0 µg/ml; phage input 5.64E+09
[30] = target: human TNFR1 (soluble recombinant protein) (human) (UniProt P19438); assay: phage ELISA, plate coated with 1 nM TNFR1, anti-M13-HRP; trypsin 0 µg/ml; phage input 7.05E+08
[31] = target: human TNFR1 (soluble recombinant protein) (human) (UniProt P19438); assay: phage ELISA, plate coated with 1 nM TNFR1, anti-M13-HRP; trypsin 100 µg/ml; phage input 3.52E+08
[32] = target: human TNFR1 (soluble recombinant protein) (human) (UniProt P19438); assay: phage ELISA, plate coated with 1 nM TNFR1, anti-M13-HRP; trypsin 1 mg/ml; phage input 7.05E+08

Sequence of human TNFR1 (soluble recombinant protein) (human) (P19438 41-201 limits assumed): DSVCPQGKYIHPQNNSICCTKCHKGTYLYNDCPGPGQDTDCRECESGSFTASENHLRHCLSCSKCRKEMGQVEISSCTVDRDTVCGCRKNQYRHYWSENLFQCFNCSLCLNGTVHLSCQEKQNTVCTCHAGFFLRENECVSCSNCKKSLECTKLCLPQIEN

- phage ELISA signal [1]: 0.08
- phage ELISA signal [2]: 0.802
- phage ELISA signal [3]: 0.115
- phage ELISA signal [4]: 0.141
- phage ELISA signal [5]: 0.196
- phage ELISA signal [6]: 0.577
- phage ELISA signal [7]: 0.284
- phage ELISA signal [8]: 0.86
- phage ELISA signal [9]: 0.916
- phage ELISA signal [10]: 0.286
- phage ELISA signal [11]: 0.85
- phage ELISA signal [12]: 0.949
- phage ELISA signal [13]: 0.573
- phage ELISA signal [14]: 0.944
- phage ELISA signal [15]: 0.084
- phage ELISA signal [16]: 0.213
- phage ELISA signal [17]: 0.946
- phage ELISA signal [18]: 0.377
- phage ELISA signal [19]: 0.089
- phage ELISA signal [20]: 0.409
- phage ELISA signal [21]: 0.229
- phage ELISA signal [22]: 0.418
- phage ELISA signal [23]: 0.784
- phage ELISA signal [24]: 0.284
- phage ELISA signal [25]: 0.114
- phage ELISA signal [26]: 0.133
- phage ELISA signal [27]: 0.695
- phage ELISA signal [28]: 0.183
- phage ELISA signal [29]: 0.962
- phage ELISA signal [30]: 0.705
- phage ELISA signal [31]: 0.084
- phage ELISA signal [32]: 0.084
Substance: DOM1h-131

From patent publication US20100254972A1
